Results from publication PMC3898201.

Legend:
[1] = biological target: proteasome catalytic subunit β2 (in the purified rabbit 20S constitutive proteasome) (rabbit); assay: FRET or BRET
[2] = biological target: proteasome catalytic subunit β5 (in the purified rabbit 20S constitutive proteasome) (rabbit); assay: FRET or BRET

With “proteasome catalytic subunit β1 (in the purified rabbit 20S constitutive proteasome) (natural protein)” the FRET efficiency E [1] was 0.18, the FRET efficiency E [2] was 0.55 and the FRET efficiency E (fluorophores swapped: LKSCy3:UKPCy5) [2] was 0.55.

In the case of “proteasome catalytic subunit β5 (in the purified rabbit 20S constitutive proteasome) (natural protein)”, the FRET efficiency E [1] is reported as 0.45.
